Assay results reported in PMC6008203.
Substitutions are numbered along the chain they refer to. Names and notes keep the numbering of the source.

B1: PtmA2 (Streptomyces platensis; A497K) (protein)
chain: MQHTTIGDVLREHRRSHPGRTALVDGPVRLTWPELDDRVNRLAGSLAASGIGRGDRIMWLGQNSFRVYELIAAAGKLGAMVCVGYWRWAPPEMEFALRDFDPHLVVWQHQEIHETVARTREALGSDDTARWLRHDSAPQDPDGYEAFLAAGGLADPDLDIDPDSPVLVLYTAAMSGRQCGSLLSHTNLIAMATAAAWLGDIDHTTAFLNSGPMFHIGNHQFWGMPTLLMAGKNVIVRRVVAEEVRDLLVAEECTHAFLMPPTVAEIVRLNRDTGHDLSRLRATVAPHLWEGMATTDTSRFTRSGAAAGRGYGQTELSGFAVTAAYGGPAAGNAGRPGPGLTVRVLDTAGRECAVGEAGEICARGTVVHRGYWNRDEVNAHRFRSGWWHTTDLGRREPDGSLTFLGTTTRMLKSAAENIFPAEVENCIEQHPAVREAAVIGVPNTRWAQDVKAVVVLEPDAGVSEQEIIDHCRPRIASYKKPKSVAFAAALPRTVSGKRDYDALDKEYGGGGYPGAATLGPGR
B2: PtmA2 (Streptomyces platensis; A172S/A173G/C179K/M174T/Q178P) (protein)
chain: B1 chain with A172S, A173G, M174T, Q178P, C179K, K497A
B3: PtmA2 (Streptomyces platensis; A172S/A173G/A497K/C179K/M174T/Q178P) (protein)
chain: B1 chain with A172S, A173G, M174T, Q178P, C179K
B4: PtmA2 (Streptomyces platensis) (protein)
chain: B1 chain with K497A
B5: PtmA2 (Streptomyces platensis; E416A) (protein)
chain: B1 chain with E416A, K497A

Substrate: CC(C)(COP(=O)(O)OP(=O)(O)OC[C@H]1O[C@@H](n2cnc3c(N)ncnc32)[C@H](O)[C@@H]1OP(=O)(O)O)[C@@H](O)C(=O)NCCC(=O)NCCS
Assay: purified protein
Format: biochemical, Streptomyces platensis
Conditions: saturating 6 (100 μM), Tris pH 7.8, 25 °C

Protein	Km [µM]	Vmax [µmol/min]	kcat [s⁻¹]	kcat/Km [M⁻¹ s⁻¹]	further results
B1	6.8 ± 1.0	4.74	32	4.7e+06	–
B2	–	–	–	–	Km (P-loop mutant): 70 ± 8 µM; Vmax (P-loop mutant): 8.88 µmol/min; kcat (P-loop mutant): 7.4 s⁻¹; kcat/Km (P-loop mutant): 110000 M⁻¹ s⁻¹
B3	–	–	–	–	Km (A497K/P-loop mutant): 69 ± 11 µM; Vmax (A497K/P-loop mutant): 5.94 µmol/min; kcat (A497K/P-loop mutant): 10 s⁻¹; kcat/Km (A497K/P-loop mutant): 140000 M⁻¹ s⁻¹
B4	6.2 ± 0.6	5.82	20	3.2e+06	–
B5	7.8 ± 1.2	5.34	0.18	23000	–
